# Key:
# PC12 cells = assay: PC12 cell neurite outgrowth in response to EGF; assay type: cell-based; conditions: vs no peptide or scrambled peptide
# Method: To assess the effect of p75^NTR constructs (FIG. 2) or c29 peptide on TrkA-mediated neuritogenesis, transfected PC12 cells were grown in the presence of 100 ng/ml NGF for 3 days, with fresh medium and NGF treatments added on day 2. Cells were then imaged live on an Olympus (IX81) microscope fitted with a CO2 atmospheric chamber, using analySIS software. Four random images of 80-100 cells were taken for each treatment condition and images were determined by measuring polygon neurite length of all cells in each image. Data analysis was performed using Graphpad PRISM.
# To determine whether the effect of the c29 peptide on enhancement of neurite outgrowth was NGF and TrkA specific, we repeated the experiment using EGF to stimulate differentiation.
# [1] = test system: primary E13 motor neurons; assay: Primary motor neuron survival and growth factor withdrawal; assay type: cell-based, mouse
# TrkAK538A = biological target: T1, TrkAK538A (Homo sapiens, UniProt P04629, K544A); assay: NGF-FITC binding by flow cytometry, TrkAK538A-transfected HEK293 cells
# T1 construct: expressed in transfected cells; host or cells: HEK293
# Method: (§1) The NGF was conjugated to FITC by standard methods and detailed flow cytometry acquisition and analysis. For NGF-FITC conjugation 400 μg βNGF in 200 μl pH 8.5 NaHCO3 buffer was mixed with 5-10 μl of 10 mg/ml FITC in 100 μl DMSO for 10 hours at 4° C. on an orbital shaker set to 100 rpm. The excess FITC was removed by dialysis against 3 changes of 5 L of 10 mM Tris, 150 mM NaCl, 0.2% acetic acid, pH 8.2 for 24 hours at 4° C. Conjugate F/P characterization was determined by measuring absorbance at 280 nm and 495 nm according to manufacturer's instructions. Biological activity of the NGF-FITC conjugate was tested by performing PC12 cell neurite outgrowth assays unlabelled NGF, and comparing the levels of neuritogenesis. NGF-FITC conjugates were used within 4 weeks of synthesis.
# (§2) For the flow cytometry NGF binding assays, fluorescence cell parameters of at least 20,000 events for PC12 cells and 100,000 events for HEK293 cells were acquired by flow cytometry list mode and measurements were performed on a single cell basis (with compensation for double event counting). Dead cells and debris were gated out of the analysis on the basis of forward scatter fluorescence, and mean, median and maximal fluorescence values of the gated cell populations were analysed using FACS Diva Software (Becton-Dickinson Biosciences) and FACS Express Software (Becton-Dickinson Biosciences).
# (§3) Background fluorescence of HEK293 cells was non-transfected cells (±c29 or scrambled peptide treatment) treated with 26 nM NGF-FITC. For PC12 cells, the control population was cells that had not been treated with NGF-FITC. Analysis of real-time NGF-FITC receptor binding experiments was performed on 550,000-600,000 cells at 4° C. in serum free NB medium and binding kinetics were calculated from raw data files compressed to 50,000 binding events using FlowJo and MatLab Software. Data was plotted with the use of GraphPad Prism.
# (§4) Only NGF-FITC preparations that promoted equivalent neurite outgrowth of PC12 cells to that of unlabelled NGF were used in binding experiments. To investigate NGF binding, PC12 or transfected HEK293 cells were serum starved for 4 hours, harvested, washed with Dulbecco's Modified Eagle Medium (DMEM), and counted. When used, c29 or scrambled peptide were added to cultures for the third hour of the serum starvation procedure. 1×10^7 cells/ml suspended in 500 μl of serum-free DMEM were incubated with 26 nM NGF-FITC on ice for 60 minutes before analysis. For binding competition assays, following 1 hour in NGF-FITC, cells were washed with ice-cold PBS containing 0.1% normal bovine serum and incubated on ice with unlabeled NGF at concentrations ranging from 100 pM to 10 μM for 30 minutes, then washed twice in PBS before being analysed on a BD Flow Cytometer FACS Scan (Becton-Dickinson).
# (§5) To determine association rates, cells were harvested as above following serum starvation and peptide treatment, and were resuspended in 3 ml of serum-free Neurobasal (NB) medium containing […] (Invitrogen) and […] nonessential amino acids, prior to analysis on the flow cytometer. Cells were analysed for 30 seconds prior to the addition of 26 nM NGF-FITC, and then for 30 minutes in real time with an analysis rate of 200-300 events/sec.
# p75^FL = biological target: T2, p75^FL (Rattus norvegicus, UniProt P07174); assay: NGF-FITC binding by flow cytometry, p75^FL-transfected HEK293 cells
# T2 construct: p75^FL—full-length p75^NTR; expressed in transfected cells; host or cells: HEK293
# T2 sequence (P07174 30-425): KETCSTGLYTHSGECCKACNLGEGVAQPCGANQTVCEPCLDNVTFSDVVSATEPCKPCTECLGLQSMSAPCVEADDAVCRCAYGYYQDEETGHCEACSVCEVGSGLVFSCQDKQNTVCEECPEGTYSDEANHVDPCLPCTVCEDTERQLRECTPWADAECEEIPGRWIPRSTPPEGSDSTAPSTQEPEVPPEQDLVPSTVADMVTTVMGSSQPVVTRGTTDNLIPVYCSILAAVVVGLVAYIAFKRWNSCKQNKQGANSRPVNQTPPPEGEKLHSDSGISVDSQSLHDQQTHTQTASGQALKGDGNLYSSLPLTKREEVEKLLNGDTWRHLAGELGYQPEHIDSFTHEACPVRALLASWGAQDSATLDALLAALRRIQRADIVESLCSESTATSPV
# Method: as §1, §2, §3, §4, §5
# [2] = 26 nM NGF-FITC 60 minutes, + c29 c.f. TrkAK538A alone
# [3] = 26 nM NGF-FITC 60 minutes, c.f. p75^FL alone
# T1 sequence (P04629 33-796 K544A): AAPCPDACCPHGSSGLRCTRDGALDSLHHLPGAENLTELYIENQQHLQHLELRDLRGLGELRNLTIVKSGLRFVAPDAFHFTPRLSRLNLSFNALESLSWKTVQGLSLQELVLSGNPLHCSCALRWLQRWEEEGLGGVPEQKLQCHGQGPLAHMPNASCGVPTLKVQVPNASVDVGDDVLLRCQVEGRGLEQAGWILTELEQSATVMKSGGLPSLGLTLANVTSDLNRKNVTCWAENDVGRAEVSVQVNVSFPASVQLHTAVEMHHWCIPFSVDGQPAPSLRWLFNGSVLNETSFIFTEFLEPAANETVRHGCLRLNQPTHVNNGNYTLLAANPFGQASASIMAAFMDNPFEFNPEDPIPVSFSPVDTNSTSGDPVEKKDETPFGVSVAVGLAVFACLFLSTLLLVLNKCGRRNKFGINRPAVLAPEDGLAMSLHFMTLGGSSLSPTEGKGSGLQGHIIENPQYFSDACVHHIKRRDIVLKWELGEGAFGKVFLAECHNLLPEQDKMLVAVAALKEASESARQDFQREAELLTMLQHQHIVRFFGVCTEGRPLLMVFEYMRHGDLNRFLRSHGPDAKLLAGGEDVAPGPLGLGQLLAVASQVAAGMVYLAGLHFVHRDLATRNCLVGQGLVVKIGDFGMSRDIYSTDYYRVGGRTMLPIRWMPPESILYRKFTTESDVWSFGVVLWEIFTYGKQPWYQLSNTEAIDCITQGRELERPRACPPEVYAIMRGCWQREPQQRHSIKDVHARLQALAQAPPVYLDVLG
# T1 sequence (P01139 122-239 partner limits assumed): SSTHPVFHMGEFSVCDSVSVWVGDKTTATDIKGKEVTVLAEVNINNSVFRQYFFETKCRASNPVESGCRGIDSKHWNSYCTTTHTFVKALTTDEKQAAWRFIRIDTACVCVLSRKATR
sequence,measurement,setting,value
KRWNSCKQNKQGANSRPVNQTPPPEGEKL (c29- Fragment of p75ICD) [29 amino acid peptide of the p75NTR juxtamembrane Chopper domain; delivered to cells linked to PTD4 or disulfide-linked carrier],neuritogenesis in EGF-treated cultures,PC12 cells,no effect on neuritogenesis
same,NGF-induced cell death of motor neurons,[1]; 1 ng/ml BDNF plus NGF,significantly protected from NGF-induced cell death
same,neuronal survival after BDNF withdrawal,"[1]; 10-fold lower BDNF, vs scrambled peptide",significantly increased neuronal survival
same,survival of motor neurons following CNTF or GDNF withdrawal,[1]; 10-fold lower CNTF or GDNF,no effect on the survival of motor neurons
same,motor neuron survival,"[1]; BDNF 0.01-1.0 ng/ml, after 5 days, vs control cultures",increased survival
same,% of cell population with FITC above background,TrkAK538A; [2],112.2 ± 5.3%
same,Maximal fluorescence per cell of the population,TrkAK538A; [2],128.0 ± 11.7%
same,Mean fluorescence per FITC-positive cell,TrkAK538A; [2],125.0 ± 12.1%
same,Median population fluorescence,TrkAK538A; [2],140.5 ± 21.3%
same,half time of NGF-FITC binding,"TrkAK538A; 26 nM NGF-FITC, cells pre-treated with c29, average of 3 experiments",3.6 min
same,faster association rate than untreated cells,TrkAK538A; Hill-Slope association curve fit,~3 fold
same,"total number of fluorescent cells, median, mean and maximal fluorescence",TrkAK538A; compared to control TrkAK538A-transfected cells,significantly increased
same,"mean fluorescence of the population following receptor saturation, higher than untreated",TrkAK538A; ~20 minutes after NGF addition,at least 20%
same,% of cell population with FITC above background,p75^FL; [3],100.5 ± 14.2%
same,Maximal fluorescence per cell of the population,p75^FL; [3],98.7 ± 4.3%
same,Mean fluorescence per FITC-positive cell,p75^FL; [3],105.2 ± 3.6%
same,Median population fluorescence,p75^FL; [3],103.8 ± 11.2%
same,half time of NGF-FITC binding,"p75^FL; 26 nM NGF-FITC, cells treated with c29",7.1 min
same,fluorescence profile of the population,"p75^FL; pre-treated with c29, NGF-FITC",did not change
